“Also recorded” adds a separate entry of the source.

The test system of test [1] is B-Raf mutated cell lines (H29, A375, A2058 and WM115). Nature of the test: Cell proliferative assays in B-Raf mutated cell lines. Format: cell-based. The note with it: four B-Raf mutated cell lines. Here is the method:
To investigate whether NRG signaling attenuates the anti-proliferative effects of trametinib or vemurafenib, cells were exposed to the drugs in the presence or absence of NRG. In addition, 2C2-YTE was introduced in a separate set of samples. Cell proliferative assays were performed in all four B-Raf mutated cell lines (H29, A375, A2058 and WM115).

The target in a further test is T1, ErbB3 (HER3) (Homo sapiens (Human), UniProt P21860 20-1342).
T1 construct: They are human tumour lines, so human HER3 is meant; also called HER3 receptor
Nature of the test: binding of fluorescent probe to HT29, A375, A2058 and WM115 cells; mean fluorescence intensity, total over non-specific (excess unlabelled probe). On the procedure: The effects of trametinib and vemurafenib on cell-surface expressed ErbB3 were also monitored. HT29, A375, A2058 and WM115 cells were treated with 100 nM trametinib or 1 μM vemurafenib for 24 hours at 37° C. […] Specific binding was determined by calculating the mean fluorescent intensity ratio of total binding (labeled probe alone) divided by the non-specific binding (labeled probe with excess of unlabeled probe). Values should be reported as the binding ratio of drug-treated samples divided by the untreated sample.

B1: NRG: neuregulin, HER3 ligand used to stimulate cells (protein)
chain: SHLVKCAEKEKTFCVNGGECFMVKDLSNPSRYLCKCPNEFTGDRCQNYVMASFYKHLGIEFMEAE
Take B1: the “effect of NRG on anti-proliferative effects of trametinib or vemurafenib” value in test [1] was “can robustly attenuate the effects of BRAF and MEK inhibitors; also recorded: attenuates the anti-proliferative effects of the BRAF and MEK inhibitors”.

B2: 2C2-YTE anti-HER3 antibody (antibody, V domains shown)
VH: EVQLLESGGGLVQPGGSLRLSCAASGFTFSYYYMQWVRQAPGKGLEWVSYIGSSGGVTNYADSVKGRFTISRDNSKNTLYLQMNSLRAEDTAVYYCARVGLGDAFDIWGQGTMVTVSS
VL: QSVLTQPPSASGTPGQRVTISCSGSLSNIGLNYVSWYQQLPGTAPKLLISRNNQRPSGVPDRFSGSKSGTSASLAISGLRSEDEADYYCAAWDDSPPGEAFGGGTKLTVL
notes: In the phosphorylation and proliferation assays it was unlabelled; also called 2C2-YTE mutant antibody; anti-HER3 antibody (2C2-YTE); not shown: human lambda light chain constant region
With B2, the binding result with ErbB3 (HER3) is reported as “binds”.

These data come from patent US20170190788A1, “USES OF ANTI-HER3 ANTIBODIES FOR TREATING CANCER” (BULLDOG PHARMACEUTICALS, INC., priority 2014, published 2017).
